The source of these data is US20200399344A1 (SHATTUCK LABS, published 2020).

Values joined by “and” are separate entries in the source; they are usually repeats but may differ in a detail not shown here. Equal entries are not always repeated.

Test [1] addresses T1, recombinant mCD47 (mCD47-His) protein (mouse, UniProt Q61735 19-140, limits assumed).
T1 construct: not shown: His tag
T1 sequence (looked up): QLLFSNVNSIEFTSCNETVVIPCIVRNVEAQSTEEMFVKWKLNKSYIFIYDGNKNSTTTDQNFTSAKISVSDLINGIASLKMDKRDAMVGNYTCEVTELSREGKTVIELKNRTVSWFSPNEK
As to the kind of experiment: sandwich ELISA, anti-NKG2a antibody coated, mCD47-His detection (FIG. 38). How it is done: Increasing amounts of the mSIRPα-Fc-NKG2A chimeric protein was added and detected using mCD47-His. The CD86-Fc-NKG2A chimeric protein was used as a negative control.
To understand whether the mSIRPα-Fc-NKG2A chimeric protein can binds simultaneously to both anti-NKG2a and CD47, the following ELISA experiment was carried out. Briefly, and anti-NKG2a antibody was coated on plates. Increasing amounts of the mSIRPα-Fc-NKG2A and mCD48-Fc-NKG2A chimeric proteins were added to the plates for capture by the anti-NKG2a antibody. Further, recombinant mCD47 (mCD47-His) protein was added to the plate for capture by mSIRPα-Fc-NKG2A chimeric protein. The binding of the mCD47-His protein was detected using an anti-His HRP antibody.
Background: ELISA stands for enzyme-linked immunosorbent assay.

Test [2] addresses T2, HLA class I histocompatibility antigen, alpha chain E (HLA-E), plate-bound recombinant protein (human, UniProt P13747 22-305, limits assumed).
T2 construct: no tag named there; also called recombinant HLA-E protein
Description: Dual binding ELISA: coat mHLA-E (Novus) as printed, detect Anti-mCD48 (R&D), HRP Anti-Goat HRP.

The target in test [3] is T3, recombinant human CD28-His (rhCD28-His) (human, UniProt P10747 19-152).
T3 construct: also called Human CD28-His protein; recombinant CD28 protein; not shown: His tag
Description: ELISA: coat rhCD28-His (Acro), detection printed as Anti-hFc-HRP. How it is done:
To understand whether the CD80 and CD86 parts of the hCD80-Fc-NKG2A and hCD86-Fc-NKG2A chimeric protein can bind CD28, ELISA-based assays were performed. Briefly, recombinant CD28 protein was coated on plates and increasing amounts of the hCD80-Fc-NKG2A, hCD86-Fc-NKG2A, and mCD48-Fc-NKG2A chimeric proteins, and recombinant human CD86-Fc (rhCD86-Fc) protein was added to the plates for capture by the plate-bound recombinant CD28 protein. The mCD48-Fc-NKG2A chimeric protein, and recombinant human CDrhCD86-Fc protein was used as negative and positive controls, respectively. The chimeric proteins bound to the recombinant CD28 protein was detected using an anti-human Fc HRP.

The target of test [4] is T4, anti-mFc IgG antibody (plate-bound).
T4 construct: also called anti-Fc antibody
As to the kind of experiment: Fc ELISA: coat Anti-mFc (Jax), detect Anti-mFc-HRP (Jax). The text has this: A mouse whole IgG was used to generate a standard curve.

T2 sequence (P13747 22-305 limits assumed): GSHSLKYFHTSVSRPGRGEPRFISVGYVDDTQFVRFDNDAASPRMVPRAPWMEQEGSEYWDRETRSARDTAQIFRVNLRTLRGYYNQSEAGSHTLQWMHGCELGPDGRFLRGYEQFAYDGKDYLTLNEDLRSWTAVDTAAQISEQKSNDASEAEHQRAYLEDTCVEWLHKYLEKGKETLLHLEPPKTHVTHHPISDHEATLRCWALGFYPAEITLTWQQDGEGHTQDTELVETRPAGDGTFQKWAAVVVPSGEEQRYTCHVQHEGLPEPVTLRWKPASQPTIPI
T3 sequence (P10747 19-152 limits assumed): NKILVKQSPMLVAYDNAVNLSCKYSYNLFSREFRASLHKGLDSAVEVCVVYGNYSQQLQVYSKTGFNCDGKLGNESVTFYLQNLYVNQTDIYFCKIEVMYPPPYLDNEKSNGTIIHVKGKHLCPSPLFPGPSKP

B1: mouse CD48-Fc-NKG2A chimeric protein (Fc fusion)
chain: FQGHSIPDINATTGSNVTLKIHKDPLGPYKRITWLHTKNQKILEYNYNSTKTIFESEFKGRVYLEENNGALHISNVRKEDKGTYYMRVLRETENELKITLEVFDPVPKPSIEINKTEASTDSCHLRLSCEVKDQHVDYTWYESSGPFPKKSPGYVLDLIVTPQNKSTFYTCQVSNPVSSKNDTVYFTLPCDLARSVPRDCGCKPCICTVPEVSSVFIFPPKPKDVLTITLTPKVTCVVVDISKDDPEVQFSWFVDDVEVHTAQTQPREEQFNSTFRSVSELPIMHQDWLNGKEFKCRVNSAAFPAPIEKTISKTKGRPKAPQVYTIPPPKEQMAKDKVSLTCMITDFFPEDITVEWQWNGQPAENYKNTQPIMDTDGSYFVYSKLNVQKSNWEAGNTFTCSVLHEGLHNHHTEKSLSHSPGIIEGRMDTPYTEAKAQINSSMTRTHRDINYTLSSAQPCPHCPKEWISYSHNCYFIGMERKSWNDSLVSCISKNCSLLYIDSEEEQDFLQSLSLISWTGILRKGRGQPWVWKEDSIFKPKIAEILHDECNCAMMSASGLTADNCTTLHPYLCKCKFPI
notes: also called mCD48-Fc-NKG2A
Usually EC50 stands for the concentration needed to bring the measured effect to its halfway point. Regarding B1, the binding result in test [1] was “no binding”; in test [3], “no binding (tested: log[Agonist] about 2.7, ug/ml)”. The EC50 in test [2] was 537 nM and 381 nM; in test [4], 0.938 nM and 0.436 nM.
